Assay [1] concerns the target RAGE ligand (not named in the glycoform binding study). As to the kind of experiment: binding assay of RP-HPLC glycoform fractions; method and ligand not stated; reference sample; data not shown.
Assay [2] shares this target. As to the kind of experiment: binding assay of RP-HPLC glycoform fractions; reference is the 3-glycan fraction; method and ligand not stated; data not shown.
For assay [3] the target is unchanged. As to the kind of experiment: binding assay of RP-HPLC glycoform fractions; method and ligand not stated; data not shown.

For the substance “control RAGE fusion protein (mixture of 67% 3-glycan and 22% 2 glycan RAGE fusion protein) (Fc fusion)”, the relative binding in assay [1] turned out to be 100%.
The substance “0-glycan RAGE fusion protein (RP-HPLC fraction of wild-type RAGE fusion protein) (Fc fusion)” registered a fold increase in binding against the 3 glycan fraction in assay [2] of 10 fold. The same substance came in with a relative binding (percent of control RAGE fusion protein) in assay [3] of 529%.

These data come from patent US20130142792A1.
